Experimental data: US20130251640

Assays:
[1] = test system: T1, substrate a, Mca-Gly-Ser-Pro-Ala-Phe**Leu-Ala-Lys(Dnp)-DArg-CONH2
T1 sequence: GSPAFLAKR

[2] = test system: T2, substrate b, Mca-Gly-Pro-Ile-Leu-Phe**Phe-Arg-Leu-Gly-Lys(Dnp)-DArg-CONH2
T2 sequence: GPILFFRLGKR

[3] = test system: T3, substrate c, Mca-Gly-Pro-Ile-Leu-Phe**Phe-Arg-Leu-Lys(Dnp)-DArg-CONH2
T3 sequence: GPILFFRLKR

[4] = test system: T4, substrate d, Mca-Ala-Gly-Phe-Ser-Leu**Gly-Pro-Lys(Dnp)-DArg-CONH2
T4 sequence: AGFSLGPKR

[5] = test system: T5, substrate e, Mca-Ala-Gly-Phe-Ser-Leu**Pro-Ala-Lys(Dnp)-D-Arg-CONH2
T5 sequence: AGFSLPAKR

Substance | fluorescence intensity on hydrolysis (FRET substrate) [1] | fluorescence intensity on hydrolysis (FRET substrate) [2] | fluorescence intensity on hydrolysis (FRET substrate) [3] | fluorescence intensity on hydrolysis (FRET substrate) [4] | Kcat/Km [5] | fluorescence intensity on hydrolysis (FRET substrate) [5] | Kcat [5] [S^-1] | Km [5] [µM] | Vmax [5] [µM S^-1]
Cathepsin D (purchased from Calbiochem, EMD Bioscience) | such leading increase in fluorescence signal with Cath E was observed as well upon incubation with Cath D | Compared to substrate b, substrate c shows superior increase in the fluorescence intensity upon hydrolysis by both Cath E and Cath D | Compared to substrate b, substrate c shows superior increase in the fluorescence intensity upon hydrolysis by both Cath E and Cath D | both substrates d and e exhibited similar slow hydrolysis by Cath D | NM^a | both substrates d and e exhibited similar slow hydrolysis by Cath D |  |  | 
Cathepsin E (purchased from Calbiochem, EMD Bioscience) | A prominent fluorescence increase of substrate a was observed instantaneously upon incubation with Cath E | Compared to substrate b, substrate c shows superior increase in the fluorescence intensity upon hydrolysis by both Cath E and Cath D | Compared to substrate b, substrate c shows superior increase in the fluorescence intensity upon hydrolysis by both Cath E and Cath D | substrate d showed relatively slow hydrolysis and did not reach saturation within the monitored period | 16.7 | substrate e was activated by Cath E quickly and reached saturation within 10 minutes | 322 | 19.4 | 2.2
